The values below come from article PMC6062542, “Structural and Biochemical Characterization of AaL, a Quorum Quenching Lactonase with Unusual Kinetic Properties” (Scientific Reports, 2018).

One series deals with T1, AaL (Alicyclobacillus acidoterrestris, UniProt T0BMH6).
T1 construct: gene K1I37_05175; codon-optimized synthetic gene; N-terminal Strep tag (WSHPQFEK) + TEV site (ENLYFQS), tag cleaved with TEV; homodimer
T1 sequence (T0BMH6 1-282): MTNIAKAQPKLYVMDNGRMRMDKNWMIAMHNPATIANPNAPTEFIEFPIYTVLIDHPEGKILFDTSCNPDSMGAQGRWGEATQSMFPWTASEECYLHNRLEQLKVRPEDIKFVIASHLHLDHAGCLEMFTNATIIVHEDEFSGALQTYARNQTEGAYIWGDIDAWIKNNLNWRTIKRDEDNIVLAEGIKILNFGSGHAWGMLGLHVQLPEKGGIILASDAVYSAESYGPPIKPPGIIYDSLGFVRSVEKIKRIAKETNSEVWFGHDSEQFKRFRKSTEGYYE
Nature of the series: X-ray crystal structure, […] Å, crystal soak. The format is binding. The conditions noted are these: soaked 10 min with 20 mM C6-AHL; active site, two cobalt cations; modelled occupancy 0.7.

Substrate in series [1]: CCCC1CCC(=O)O1
The experiment in a line: purified protein. It is filed as biochemical, Alicyclobacillus acidoterrestris. The conditions noted are these: 2.5 mM Bicine pH 8.3, 150 mM NaCl, 0.2 mM cresol purple, 0.5% DMSO, 0.2 mM CoCl2, room temperature.

Substrate in series [2]: CCCCCC1CCCC(=O)O1
Nature of the series: purified protein. The format is biochemical, Alicyclobacillus acidoterrestris. As to conditions: 2.5 mM Bicine pH 8.3, 150 mM NaCl, 0.2 mM cresol purple, 0.5% DMSO, 0.2 mM CoCl2, room temperature.

Substrate in series [3]: O=C1CCCCO1
Nature of the series: purified protein. The conditions noted are these: 2.5 mM Bicine pH 8.3, 150 mM NaCl, 0.2 mM cresol purple, 0.5% DMSO, 0.2 mM CoCl2, room temperature. The format is biochemical, Alicyclobacillus acidoterrestris.

Substrate in series [4]: O=C1CCCO1
The experiment in a line: purified protein. The format is biochemical, Alicyclobacillus acidoterrestris. As to conditions: 2.5 mM Bicine pH 8.3, 150 mM NaCl, 0.2 mM cresol purple, 0.5% DMSO, 0.2 mM CoCl2, room temperature.

For the molecule `CCCCCC(=O)N[C@H]1CCOC1=O` [C6-AHL], the “X-ray crystal structure, 1.8 Å, crystal soak” value on AaL was “the structure of AaL bound to C6-AHL could be solved”.

B1: AaL (Alicyclobacillus acidoterrestris ATCC 49025) (protein)
chain: T1 sequence (T0BMH6 1-282)
notes: codon-optimized synthetic gene; N-terminal Strep tag (WSHPQFEK) + TEV site (ENLYFQS), tag cleaved with TEV; homodimer
In the case of B1, the Km in “purified protein [1]” turned out to be 36.9 ± 8.9 µM; in “purified protein [2]” it was 18.5 ± 0.4 µM; in the series “purified protein [3]”, 18.7 ± 0.4 µM; in “purified protein [4]”, 171.0 ± 36.1 µM. Further, the kcat was 8.4 ± 0.6 s⁻¹ in the series “purified protein [2]”, 8.4 ± 0.4 s⁻¹ in “purified protein [3]” and 23.5 ± 1.7 s⁻¹ in “purified protein [4]”. In addition, the kcat/Km in “purified protein [2]” stood at 450000 ± 100000 M⁻¹ s⁻¹; in the series “purified protein [3]”, 450000 ± 90000 M⁻¹ s⁻¹; in the series “purified protein [4]”, 140000 ± 30000 M⁻¹ s⁻¹.

One may read the Km as the substrate concentration at which the rate is half of its maximum. The kcat is the number of substrate molecules converted per active site and unit of time at saturation. For orientation: kcat/Km means the second-order rate constant that governs catalysis at low substrate concentration.
